Assay results published in the supplement of paper PMC9876800.

Tested on: peptide library, one residue held at a place counted from the S/T acceptor
Assay: relative phosphorylation of the sub-library (ratio to the mean residue at this position); higher = residue favoured
How it was run: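 Purified recombinant kinases (human or orthologue constructs) were incubated in 384-well plates with biotinylated degenerate peptide sub-libraries, each fixing one residue at one position around a central Ser/Thr. Peptides were at 50 μM, with 50 μM ATP spiked with γ-32P-ATP, for 90 min under kinase-specific conditions. Spots on streptavidin membranes were phosphorimaged and quantified by densitometry. Relative sub-library phosphorylation is a ratio to the mean residue at that position.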

MYLK4, construct: Full length, human, sequence (Q86YV6 whole entry, looked up): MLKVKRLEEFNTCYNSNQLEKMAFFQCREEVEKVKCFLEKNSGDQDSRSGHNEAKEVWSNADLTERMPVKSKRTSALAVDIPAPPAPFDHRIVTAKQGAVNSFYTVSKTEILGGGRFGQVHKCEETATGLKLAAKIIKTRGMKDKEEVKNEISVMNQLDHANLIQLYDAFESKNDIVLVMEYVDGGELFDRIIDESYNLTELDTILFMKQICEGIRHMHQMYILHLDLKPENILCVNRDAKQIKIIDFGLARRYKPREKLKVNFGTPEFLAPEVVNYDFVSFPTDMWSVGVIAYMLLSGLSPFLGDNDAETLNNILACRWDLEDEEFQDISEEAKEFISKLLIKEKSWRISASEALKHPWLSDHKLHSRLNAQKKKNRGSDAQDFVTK
MYLK, construct: aa1425-1771, human, sequence (Q15746 1425-1771, looked up): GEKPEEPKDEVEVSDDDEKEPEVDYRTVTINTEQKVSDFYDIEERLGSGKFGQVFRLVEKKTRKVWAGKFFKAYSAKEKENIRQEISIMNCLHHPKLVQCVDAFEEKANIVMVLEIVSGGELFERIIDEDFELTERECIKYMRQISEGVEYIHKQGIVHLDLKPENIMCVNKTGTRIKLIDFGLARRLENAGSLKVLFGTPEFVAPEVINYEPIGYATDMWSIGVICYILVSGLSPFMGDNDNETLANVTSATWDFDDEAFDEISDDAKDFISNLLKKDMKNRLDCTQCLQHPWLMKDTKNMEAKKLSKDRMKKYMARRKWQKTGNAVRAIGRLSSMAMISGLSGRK
NEK5, construct: aa1-508, human, sequence (Q6P3R8 1-508, looked up): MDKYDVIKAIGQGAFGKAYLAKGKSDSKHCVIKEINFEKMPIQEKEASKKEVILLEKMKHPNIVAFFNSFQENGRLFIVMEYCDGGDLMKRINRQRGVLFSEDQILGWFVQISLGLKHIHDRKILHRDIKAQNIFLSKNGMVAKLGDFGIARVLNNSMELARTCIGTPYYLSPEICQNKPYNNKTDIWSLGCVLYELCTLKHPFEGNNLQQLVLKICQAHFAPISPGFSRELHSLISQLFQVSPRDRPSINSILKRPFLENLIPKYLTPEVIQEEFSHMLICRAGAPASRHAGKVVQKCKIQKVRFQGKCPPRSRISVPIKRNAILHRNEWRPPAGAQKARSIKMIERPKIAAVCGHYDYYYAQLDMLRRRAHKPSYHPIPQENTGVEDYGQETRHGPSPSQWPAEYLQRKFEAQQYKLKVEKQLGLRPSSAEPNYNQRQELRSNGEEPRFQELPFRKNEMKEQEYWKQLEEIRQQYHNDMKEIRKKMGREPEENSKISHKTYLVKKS
NIM1K, construct: Full length, human, sequence (Q8IY84 whole entry, looked up): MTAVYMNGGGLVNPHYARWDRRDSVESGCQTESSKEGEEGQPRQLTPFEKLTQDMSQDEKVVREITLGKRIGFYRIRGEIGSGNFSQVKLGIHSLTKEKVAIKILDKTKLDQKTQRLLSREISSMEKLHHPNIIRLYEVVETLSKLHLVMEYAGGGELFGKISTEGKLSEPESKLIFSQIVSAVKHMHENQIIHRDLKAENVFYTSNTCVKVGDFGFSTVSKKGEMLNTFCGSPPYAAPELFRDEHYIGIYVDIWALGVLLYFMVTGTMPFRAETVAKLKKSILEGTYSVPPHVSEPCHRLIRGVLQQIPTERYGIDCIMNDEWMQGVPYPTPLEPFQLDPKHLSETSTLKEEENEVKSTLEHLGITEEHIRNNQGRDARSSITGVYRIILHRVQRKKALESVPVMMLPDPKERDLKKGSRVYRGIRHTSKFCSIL

MYLK4, construct: Full length, human (from UniProt Q86YV6)
relative phosphorylation
Conditions | at +1 | at +2 | at +3 | at +4 | at -1 | at -2 | at -3 | at -4 | at -5
A fixed | 0.96 | 0.643 | 0.61 | 0.778 | 0.871 | 0.876 | 0.764 | 1.09 | 0.837
D fixed | 0.566 | 0.833 | 0.854 | 0.974 | 0.639 | 0.272 | 0.32 | 0.437 | 0.41
E fixed | 0.776 | 1.04 | 0.652 | 0.871 | 0.49 | 0.273 | 0.339 | 0.628 | 0.432
F fixed | 1.25 | 1.2 | 1.59 | 1.04 | 0.915 | 0.405 | 0.511 | 0.909 | 1.23
G fixed | 0.814 | 0.588 | 0.715 | 0.858 | 0.533 | 0.468 | 0.544 | 1.01 | 0.735
H fixed | 0.885 | 1.27 | 0.849 | 0.917 | 1.13 | 1.17 | 0.737 | 0.907 | 0.912
I fixed | 1.01 | 1.03 | 1.05 | 1.27 | 0.817 | 0.485 | 0.63 | 1.02 | 1.25
K fixed | 1.28 | 1.39 | 0.718 | 0.807 | 1.8 | 1.76 | 2.19 | 1.89 | 1.65
L fixed | 1.03 | 1.02 | 1.27 | 1.33 | 1.74 | 0.412 | 0.455 | 0.915 | 1.24
M fixed | 1.3 | 0.948 | 1.09 | 0.938 | 1.19 | 0.5 | 0.538 | 0.973 | 1.06
N fixed | 0.921 | 0.946 | 1.01 | 1.05 | 1.34 | 0.588 | 0.498 | 0.826 | 0.694
P fixed | 0.386 | 0.713 | 0.517 | 1.18 | 0.775 | 0.389 | 0.538 | 0.743 | 0.843
Q fixed | 1.27 | 0.949 | 0.659 | 1.04 | 0.889 | 0.725 | 0.631 | 0.925 | 0.749
R fixed | 1.55 | 1.41 | 0.808 | 0.818 | 1.49 | 7.39 | 6.83 | 2.06 | 1.85
V fixed | 0.981 | 1.09 | 0.834 | 0.982 | 0.701 | 0.411 | 0.507 | 1.01 | 1
W fixed | 1.13 | 0.89 | 2.75 | 1.27 | 0.839 | 0.466 | 0.517 | 0.719 | 0.852
Y fixed | 0.888 | 1.04 | 1.04 | 0.883 | 0.848 | 0.416 | 0.449 | 0.936 | 1.26
pThr fixed | 1.88 | 1.98 | 0.701 | 1.09 | 0.794 | 0.666 | 0.917 | 0.92 | 0.692
pTyr fixed | 0.998 | 1.68 | 1.14 | 1.15 | 1.03 | 0.469 | 0.94 | 0.797 | 0.752

MYLK, construct: aa1425-1771, human (from UniProt Q15746)
relative phosphorylation
Conditions | at +1 | at +2 | at +3 | at +4 | at -1 | at -2 | at -3 | at -4 | at -5
A fixed | 0.785 | 0.75 | 0.611 | 0.755 | 0.803 | 0.95 | 0.781 | 0.743 | 0.704
D fixed | 0.578 | 0.935 | 0.68 | 0.835 | 0.963 | 0.38 | 0.392 | 0.516 | 0.472
E fixed | 0.631 | 0.874 | 0.625 | 0.747 | 0.696 | 0.378 | 0.403 | 0.586 | 0.483
F fixed | 0.917 | 1.27 | 1.37 | 1.15 | 0.87 | 0.584 | 0.653 | 1.45 | 1.21
G fixed | 0.781 | 0.599 | 0.713 | 0.906 | 0.933 | 0.631 | 0.586 | 0.819 | 0.737
H fixed | 0.706 | 0.914 | 0.744 | 1.28 | 1.06 | 1.01 | 0.876 | 0.94 | 0.916
I fixed | 1.49 | 0.99 | 2.08 | 0.946 | 0.789 | 0.499 | 0.7 | 1.06 | 1.06
K fixed | 1.36 | 1.19 | 1.03 | 1.18 | 1.27 | 1.93 | 1.63 | 1.41 | 1.21
L fixed | 1.01 | 1.09 | 1.65 | 0.952 | 1.13 | 0.505 | 0.619 | 0.898 | 1.08
M fixed | 1.51 | 1.26 | 1.21 | 0.946 | 1.17 | 0.607 | 0.66 | 1.05 | 1.04
N fixed | 0.873 | 0.86 | 0.771 | 1.03 | 1.55 | 0.834 | 0.591 | 0.723 | 0.677
P fixed | 0.615 | 0.675 | 0.637 | 1.01 | 0.896 | 0.465 | 0.556 | 0.651 | 0.722
Q fixed | 1.32 | 1.02 | 0.718 | 0.987 | 1.08 | 1.07 | 0.777 | 0.895 | 0.794
R fixed | 1.59 | 1.56 | 1.06 | 1.22 | 1.49 | 5.45 | 5.91 | 1.86 | 1.89
V fixed | 1.34 | 0.93 | 1.14 | 0.814 | 0.791 | 0.521 | 0.566 | 1 | 0.882
W fixed | 0.676 | 0.749 | 0.907 | 1.27 | 0.636 | 0.594 | 0.611 | 1.03 | 0.875
Y fixed | 0.819 | 1.33 | 1.05 | 0.96 | 0.874 | 0.587 | 0.69 | 1.35 | 2.24
pThr fixed | 1.48 | 1.39 | 0.785 | 1.03 | 0.744 | 0.528 | 0.543 | 0.678 | 0.667
pTyr fixed | 0.795 | 1.19 | 0.925 | 0.965 | 1.07 | 0.51 | 0.784 | 0.669 | 0.772

NEK5, construct: aa1-508, human (from UniProt Q6P3R8)
relative phosphorylation
Conditions | at +1 | at +2 | at +3 | at +4 | at -1 | at -2 | at -3 | at -4 | at -5
A fixed | 1.01 | 0.985 | 0.773 | 0.99 | 1.04 | 1.3 | 1.01 | 1.05 | 1.21
D fixed | 0.278 | 0.417 | 0.524 | 0.792 | 0.791 | 1.17 | 0.548 | 1.14 | 1.18
E fixed | 0.295 | 0.352 | 0.418 | 0.76 | 0.848 | 1.18 | 0.597 | 1.08 | 0.891
F fixed | 1.25 | 0.913 | 1.34 | 0.978 | 0.649 | 0.857 | 1.71 | 0.997 | 1
G fixed | 1.39 | 0.768 | 1.02 | 1.29 | 0.889 | 1.65 | 1.5 | 1.32 | 1.45
H fixed | 0.864 | 1.15 | 1.07 | 1.2 | 1.1 | 1.17 | 1.07 | 1.05 | 1.02
I fixed | 0.943 | 0.752 | 0.978 | 0.639 | 0.403 | 0.475 | 0.308 | 0.616 | 0.532
K fixed | 1.04 | 1.74 | 0.986 | 1.26 | 1.74 | 0.692 | 0.927 | 1.11 | 1.06
L fixed | 1.06 | 0.885 | 1.33 | 0.946 | 1.08 | 1.08 | 1.54 | 0.803 | 0.882
M fixed | 1.82 | 1.1 | 1.15 | 0.968 | 1.16 | 1.18 | 1.5 | 1.06 | 0.969
N fixed | 1.01 | 1.14 | 1.12 | 1.13 | 1.35 | 1.48 | 0.849 | 1.12 | 1.15
P fixed | 0.238 | 0.735 | 0.987 | 1.31 | 0.504 | 0.692 | 1.35 | 1.19 | 1.39
Q fixed | 1.61 | 1.01 | 0.868 | 1.05 | 1.31 | 0.958 | 0.729 | 0.869 | 0.844
R fixed | 1.36 | 2.28 | 1.26 | 1 | 1.78 | 0.826 | 0.798 | 0.994 | 1.09
V fixed | 0.902 | 0.846 | 0.812 | 0.701 | 0.624 | 0.482 | 0.318 | 0.531 | 0.655
W fixed | 1 | 0.873 | 1.29 | 1.07 | 0.643 | 0.945 | 1.22 | 1.25 | 0.896
Y fixed | 0.933 | 1.05 | 1.07 | 0.914 | 1.08 | 0.846 | 1.03 | 0.826 | 0.771
pThr fixed | 0.498 | 0.581 | 0.612 | 0.602 | 0.407 | 0.745 | 0.844 | 1 | 1.2
pTyr fixed | 0.429 | 0.401 | 0.715 | 0.562 | 0.879 | 1.12 | 1.01 | 1.01 | 1.15

NIM1K, construct: Full length, human (from UniProt Q8IY84)
relative phosphorylation
Conditions | at +1 | at +2 | at +3 | at +4 | at -1 | at -2 | at -3 | at -4 | at -5
A fixed | 1.02 | 1.1 | 0.686 | 0.823 | 1.14 | 1.35 | 0.839 | 1.14 | 1.43
D fixed | 0.328 | 0.286 | 1.08 | 0.716 | 0.362 | 0.331 | 0.475 | 0.831 | 0.765
E fixed | 0.455 | 0.311 | 0.495 | 0.844 | 0.331 | 0.307 | 0.502 | 0.762 | 0.602
F fixed | 1.17 | 1.55 | 1.46 | 0.97 | 0.571 | 1.7 | 0.769 | 0.709 | 0.63
G fixed | 0.75 | 0.407 | 0.548 | 0.799 | 3.74 | 1.27 | 0.883 | 1.33 | 1.12
H fixed | 0.924 | 0.848 | 1.15 | 0.801 | 0.966 | 1.15 | 1.06 | 1.06 | 1.26
I fixed | 0.801 | 1.32 | 0.626 | 1.37 | 0.503 | 0.705 | 0.681 | 0.749 | 0.778
K fixed | 0.686 | 0.545 | 0.552 | 1.12 | 1.37 | 1.03 | 1.21 | 1.57 | 1.73
L fixed | 0.975 | 1.52 | 1.15 | 1.98 | 0.818 | 0.932 | 0.84 | 0.958 | 0.869
M fixed | 1.83 | 1.3 | 0.82 | 1.31 | 0.926 | 0.997 | 0.966 | 0.956 | 0.781
N fixed | 0.722 | 0.496 | 1.12 | 0.697 | 0.842 | 1.06 | 0.797 | 1.25 | 1.2
P fixed | 0.376 | 0.51 | 0.404 | 0.722 | 0.76 | 0.361 | 0.823 | 0.87 | 0.852
Q fixed | 2.16 | 0.607 | 0.549 | 0.795 | 1.05 | 0.737 | 0.887 | 0.935 | 0.868
R fixed | 1.05 | 0.633 | 0.666 | 1.24 | 1.44 | 1.38 | 3.47 | 1.41 | 1.41
V fixed | 1.2 | 1.48 | 0.645 | 1.42 | 0.693 | 0.888 | 0.872 | 0.712 | 0.917
W fixed | 1.16 | 2.06 | 3.85 | 0.717 | 0.709 | 1.7 | 0.97 | 0.863 | 1.04
Y fixed | 1.39 | 2.04 | 1.19 | 0.686 | 0.775 | 1.1 | 0.957 | 0.884 | 0.758
pThr fixed | 0.564 | 0.357 | 0.387 | 0.81 | 0.341 | 0.522 | 0.655 | 0.711 | 0.72
pTyr fixed | 0.365 | 0.345 | 0.367 | 0.644 | 0.459 | 0.475 | 0.619 | 0.629 | 0.543
